The values below come from patent publication US20090111753A1, “Nogo-A Polypeptide Fragments, Variant Nogo Receptor-1 Polypeptides, and Uses Thereof” (Yale University, priority 2004, published 2009).

Substitutions are numbered along the chain they refer to.

The labels stand for the following.
B1: 61, 108, 131: human NgR1 mutant, listed residues mutated to alanine (protein)
chain: CPGACVCYNEPKVTTSCPQQGLQAVPVGIPAASQAIFLHGNRISHVPAASFRACRNLTILWLHSNVLARIDAAAFTGLALLAQLDLSDNAQLRSVDPATFHGLGALHTLHLDRCGLQELGPGLFRGLAALQYLYLQDNALQALPDDTFRDLGNLTHLFLHGNRISSVPERAFRGLHSLDRLLLHQNRVAHVHPHAFRDLGRLMTLYLFANNLSALPTEALAPLRALQYLRLNDNPWVCDCRARPLWAWLQKFRGSSSEVPCSLPQRLAGRDLKRLAANDLQGCAVATGPYHPIWTGRATDEEPLGLPKCCQPDAADKASVLEPGRPASAGNALKGRVPPGDSPPGNGSGPRHINDSPFGTLPGSAEPPLTAVRPEGSEPPGFPTSGPRRRPGCSRKNRTRSHCRLGQAGSGGGGTGDSEGSGALPSLTCSLTPLGLALVLWTVLGPC
B2: 95, 97: human NgR1 mutant, listed residues mutated to alanine (protein)
chain: B1 chain with A35R, R69A, D71A, A82E, A105R
B3: 89, 90: human NgR1 mutant, listed residues mutated to alanine (protein)
chain: B1 chain with A35R, H63A, S64A, A82E, A105R
B4: 87, 89: human NgR1 mutant, listed residues mutated to alanine (protein)
chain: B1 chain with A35R, W61A, H63A, A82E, A105R
B5: 108, 131: human NgR1 mutant, listed residues mutated to alanine (protein)
chain: B1 chain with A35R
B6: 237, 256, 284: human NgR1 mutant, listed residues mutated to alanine (protein)
chain: B1 chain with A35R, A82E, A105R, N211A, R230A, E258A
B7: 63, 65, 87, 89: human NgR1 mutant, listed residues mutated to alanine (protein)
chain: B1 chain with A35R, F37A, H39A, W61A, H63A, A82E, A105R

The test system of the first assay is NgR ligands. The experiment in a line: Binding of alanine substituted NgR mutants to NgR ligands, summary categories. To be noted: AP-Nogo66, AP-B4C, AP-B4C66, AP-Lingo-1, AP-OMgp and AP-MAG; compared to wild type NgR. In short, it runs like this: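 Human NgR1 template; 74 mutants with 1-8 solvent-exposed charged surface residues (within 5 Å) Ala-substituted, plus glycosylation-site mutants and D259N polymorphism. Mutants tested for binding of AP-tagged Nogo66, Amino-Nogo-B4C, B4C66, MAG, OMgp and Lingo-1; each classed as losing all, keeping all, or selective ligand binding.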
Turning to B1, the “ligand binding category of NgR mutant (Table II)” value (“ligand binding category” for short) was “Differential binding”.
Consider B2, for which the “ligand binding category” value is given as “Differential binding”.
For the molecule B3, the “ligand binding category” value is recorded as “Differential binding”.
As for B4, the “ligand binding category” value is given as “Differential binding”.
The same measure, in the same setting: in the case of B5 it was “Differential binding”; in that of B6, “Differential binding”; in that of B7, “Differential binding”.

The target in the next assay is T1, AP-Nogo66 (Homo sapiens, UniProt Q9NQC3).
T1 construct: made in house; NgR mutants: COS-7
T1 sequence (Q9NQC3 1055-1120 limits assumed): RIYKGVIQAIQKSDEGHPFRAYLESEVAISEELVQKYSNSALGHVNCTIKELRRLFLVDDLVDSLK
Description: Binding of AP-Nogo66 to COS-7 cells expressing NgR mutants. Further details: key: ++: WT level; +: weaker than wild type; trace binding; −: no binding. As to conditions: AP-Ng66 5 nM; level of binding compared to wild type NgR. Here is the method:
(§1) FIG. 4A. […] Binding of AP or AP fused NgR ligands to COS-7 cells expressing different NgR mutants as indicated. The concentrations of ligands applied were: AP, 30 nM; AP-Ng66, 5 nM; AP-Ng33, 10 nM; AP-B4C, 10 nM; AP-B4C66, 0.5 nM; AP-Lingo-1, 10 nM; AP-OMGP, 10 nM; AP-MAG, 30 nM. These concentrations are close to the binding Kd of these proteins to NgR so that any […] is reflected linearly in staining.
(§2) FIG. 4B. AP binding of NgR ligands to NgR mutants expressed as percentage of wild type NgR. AP after incubation with AP fused ligands, AP bound to COS-7 cells expressing NgR or NgR mutants were stained and measured.
(§3) To better define how multiple ligands bind to the NgR protein, we examined a series of Ala-substituted NgR for ligand binding activity. NgR mutagenesis was done using the Quick Change Multisite Directed Mutagenesis Kit (Stratagene catalog #200514). Human NgR1 was used as a template. Ala substitutions were generated for each of the charged residues predicted to be solvent accessible at the surface of the ligand binding domain of NgR (Barton, W. A., et al., Embo J. 22:3291-3302 (2003); He, X. L., et al., Neuron 38:177-185 (2003)). We generated mutants in which 1-8 surface residues localized within 5 A of one another were Ala-substituted. Because of the coiling nature of the LRR structure, as residues juxtaposed on the protein surface are commonly separated by approximately 25 residues in the primary structure. In addition to mutations in specific charged surface patches, other mutations were targeted to glycosylation sites and to regions predicted to be involved in ligand binding based on the NgR structure (Barton, W. A., et al., Embo J. 22:3291-3302 (2003); He, X. L., et al., Neuron 38:177-185 (2003)). In addition, a variant corresponding to a human polymorphism was examined (D259N). None of the mutations altered the Leu residues that define the LRR structure itself or the Cys residues critical in the amino and carboxyl terminal capping domains. The vast majority of such Ala surface substitution mutants were expressed as immunoreactive polypeptides with a molecular weight and an expression level indistinguishable from wild type NgR (FIG. 4C and data not shown).
(§4) This collection of 74 individual NgR mutants was interrogated for AP-Nogo-66, AP-Amino-Nogo-B4C, AP-MAG, AP-OMgp, and AP-Lingo-1 binding. AP-Nogo66, AP-MAG, AP-OMGP and AP-Lingo-1 constructs are described elsewhere (Fournier, A. E., et al., Nature 409:341-346 (2001); Liu, B. P., et al., Science 297:1190-1193 (2002); Mi, S., et al., Nat. Neurosci. 7:221-228 (2004); Wang, K. C., et al., Nature 417:941-944 (2002b)). The properties of the NgR mutants fell into one of three major categories (Table II and FIG. 5). A number of Ala substituted NgR polypeptides bound all of the ligands at wild type levels. […] In addition, a significant extent of the concave surface is dispensable for ligand binding.
(§5) Binding of Alanine substituted NgR mutants to NgR ligands were compared to wild type NgR and the levels of binding were categorized as ++ (WT level), + (weaker than wild type), tr (trace binding), − (no binding), N/A (not determined). NgR mutant proteins were also subjected to SDS-PAGE and probed by anti-NgR antibodies. Mutants with expression level similar to WT NgR were labeled as “y”.
Regarding B1, the Ng66 entry is “tr”.
Consider B2, for which the Ng66 result was “+”.
B3: the Ng66 result is “+”.
Regarding B4, the Ng66 entry is recorded as “++”.
For B5, the Ng66 entry is recorded as “+”.
The same measure, in the same setting: the entry for B6 is “++”; for B7 it is “++”.

The next assay concerns the target T2, AP-B4C (Homo sapiens, UniProt Q9NQC3).
T2 construct: a.a; 950-1018 (AmNg B4C); made in house; host or cells: AP ligand: HEK293T conditioned medium; NgR mutants: COS-7
T2 sequence (Q9NQC3 950-1018): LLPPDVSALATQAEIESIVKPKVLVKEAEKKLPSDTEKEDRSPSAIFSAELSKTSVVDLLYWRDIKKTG
The experiment in a line: Binding of AP-B4C to COS-7 cells expressing NgR mutants. On the set-up: key: ++: WT level; +: weaker than wild type; trace binding; −: no binding. To be noted: AP-B4C 10 nM; level of binding compared to wild type NgR. Here is the method: as §1, §2, §3, §4, §5
Turning to B1, the B4C entry is reported as “+”.
For B2, the B4C result is reported as “++”.
Turning to B3, the B4C entry was “+”.
On the same count and under the same terms, the entry for B4 is “++”.
On the same count and under the same terms, the entry for B5 is “+”; for B6 it is “++”; for B7 it is “++”.

The subject of the next assay is AP-MAG. The experiment in a line: Binding of AP-MAG to COS-7 cells expressing NgR mutants. Further details: key: ++: WT level; +: weaker than wild type; trace binding; −: no binding. To be noted: AP-MAG 30 nM; level of binding compared to wild type NgR. Here is the method:
as §1, §2, §3, §4, §5
Regarding B1, the MAG result is “−”.
For the molecule B2, the MAG result is on record as “tr”.
As for B3, the MAG result is on record as “−”.
With B4, the MAG entry is given as “+”.
As to B5, the MAG result is on record as “tr”.
Regarding B6, the MAG result was “−”.
Same read-out and setting: in the case of B7 it was “−”.

Another assay relates to AP-B4C66. The experiment in a line: Binding of AP-B4C66 to COS-7 cells expressing NgR mutants. On the set-up: key: ++: WT level; +: weaker than wild type; trace binding; −: no binding. To be noted: AP-B4C66 0.5 nM; level of binding compared to wild type NgR. Here is the method:
as §1, §2, §3, §4, §5
Regarding B1, the B4C-66 entry is listed as “+”.
As for B2, the B4C-66 entry is “+”.
In the case of B3, the B4C-66 entry is given as “+”.
B4: the B4C-66 entry is listed as “++”.
B5: the B4C-66 entry is recorded as “+”.
Turning to B6, the B4C-66 entry was “++”.
In the case of B7, the B4C-66 result is given as “++”.

A further assay deals with AP-OMgp. The experiment in a line: Binding of AP-OMgp to COS-7 cells expressing NgR mutants. Further details: key: ++: WT level; +: weaker than wild type; trace binding; −: no binding. To be noted: AP-OMGP 10 nM; level of binding compared to wild type NgR. Here is the method:
as §1, §2, §3, §4, §5
For the molecule B1, the OMgp result is listed as “−”.
Consider B2, for which the OMgp result was “tr”.
In the case of B3, the OMgp result is “−”.
The same measure, in the same setting: in the case of B4 it was “+”.
Take B5: the OMgp result is given as “+”.
Turning to B6, the OMgp entry is reported as “+”.
Consider B7, for which the OMgp entry is “+”.

A further assay addresses T3, AP-Lingo-1 (Homo sapiens, UniProt Q96FE5).
T3 construct: made in house; NgR mutants: COS-7
T3 sequence (Q96FE5 40-538 limits assumed): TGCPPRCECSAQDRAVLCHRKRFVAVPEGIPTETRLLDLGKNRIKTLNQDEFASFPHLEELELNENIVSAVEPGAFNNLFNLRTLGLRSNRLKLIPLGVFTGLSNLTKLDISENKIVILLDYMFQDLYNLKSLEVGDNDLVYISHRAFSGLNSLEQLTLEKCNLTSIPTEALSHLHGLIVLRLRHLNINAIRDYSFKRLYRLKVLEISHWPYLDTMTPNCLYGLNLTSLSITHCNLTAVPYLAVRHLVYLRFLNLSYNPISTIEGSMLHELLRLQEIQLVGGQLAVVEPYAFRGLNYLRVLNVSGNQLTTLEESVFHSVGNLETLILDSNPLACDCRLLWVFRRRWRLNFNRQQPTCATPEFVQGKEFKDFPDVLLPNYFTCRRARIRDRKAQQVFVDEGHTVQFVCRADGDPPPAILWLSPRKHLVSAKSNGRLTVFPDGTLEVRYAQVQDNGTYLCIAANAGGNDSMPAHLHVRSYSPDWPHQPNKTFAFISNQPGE
The experiment in a line: Binding of AP-Lingo-1 to COS-7 cells expressing NgR mutants. Further details: key: ++: WT level; +: weaker than wild type; trace binding; −: no binding. As to conditions: AP-Lingo-1 10 nM; level of binding compared to wild type NgR. Here is the method: as §1, §2, §3, §4, §5
On to B1, for which the Lingo-1 entry is listed as “−”.
The same measure, in the same setting: in the case of B2 it was “+”; in that of B3, “−”.
Consider B4, for which the Lingo-1 entry was “−”.
Same read-out and setting: in the case of B5 it was “−”; in that of B6, “++”; in that of B7, “−”.
